Assay results published in patent US20250034271A1 (EUCURE BEIJING BIOPHARMA, published 2025).

Experiments:
[1] = target: T1, monkey (rhesus macaque) CD40 (rmCD40) on transfected CHO cells (rhesus macaque, UniProt P25942 21-277 (human entry)); assay: flow cytometry, CHO-rmCD40 cells, antibody 1 µg/ml, anti-mIgG Fc-FITC; x: Anti-mouse-IgG-Fc-FITC, y: SSC-H
T1 construct: also called monkey CD40
T1 chain: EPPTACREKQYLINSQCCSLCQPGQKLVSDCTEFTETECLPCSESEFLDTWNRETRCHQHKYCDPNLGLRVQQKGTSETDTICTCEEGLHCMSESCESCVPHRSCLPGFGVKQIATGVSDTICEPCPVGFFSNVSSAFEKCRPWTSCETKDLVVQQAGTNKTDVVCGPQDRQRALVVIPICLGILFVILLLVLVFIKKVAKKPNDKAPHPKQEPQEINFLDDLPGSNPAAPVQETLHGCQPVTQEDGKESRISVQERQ
Description: (§1) 25 μl CHO cells were added to each well. 25 μl purified anti-hCD40 antibodies (1 μg/ml) (7F10, 6A7, or 4H6) were added to each well and were incubated at 4° C. for 30 minutes.
(§2) After being washed with PBS (1200 rmp, 5 min) twice, 50 μl of FITC labeled anti-mouse IgG Fc antibody (anti-mIgG Fc-FITC) was added into each well 1:100 dilution, followed by incubated at 4° C. for 30 minutes, and then PBS wash (1200 rmp, 5 min). The signals for FITC were detected by flow cytometry.

[2] = target: T2, mouse CD40 (mCD40) on transfected CHO cells (mouse, UniProt P27512 20-289); assay: flow cytometry, CHO-mCD40 cells, antibody 1 µg/ml, anti-mIgG Fc-FITC; x: Anti-mouse-IgG-Fc-FITC, y: SSC-H
T2 sequence: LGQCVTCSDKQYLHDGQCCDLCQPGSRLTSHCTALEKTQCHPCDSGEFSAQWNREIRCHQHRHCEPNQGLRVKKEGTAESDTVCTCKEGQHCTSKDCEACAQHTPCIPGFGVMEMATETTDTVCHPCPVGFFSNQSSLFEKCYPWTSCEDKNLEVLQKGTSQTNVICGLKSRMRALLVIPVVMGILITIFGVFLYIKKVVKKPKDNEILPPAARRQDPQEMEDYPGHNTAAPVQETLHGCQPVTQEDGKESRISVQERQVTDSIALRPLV
Description: as §1, §2

[3] = target: T3, chimeric (mouse and human) CD40 (chiCD40) on transfected CHO cells (chimeric (mouse and human)); assay: flow cytometry, CHO-chiCD40 cells, antibody 1 µg/ml, anti-mIgG Fc-FITC; x: Anti-mouse-IgG-Fc-FITC, y: SSC-H
T3 construct: also called human-mouse chimeric CD40; chimeric CD40
Description: as §1, §2

[4] = target: T4, human CD40 (hCD40) on transiently transfected CHO cells (human, UniProt P25942 21-277); assay: flow cytometry, CHO cells with hCD40, antibody titrated then hCD40L-hFc added (blocked ligand: hCD40L-hFc); y: hCD40 Ligand-hFc, x: Anti-mouse-IgG-Fc-PE
T4 construct: also called TNF Receptor Superfamily Member 5; TNFRSF5
Description: The anti-hCD40 antibodies were collected from mouse ascites fluid and purified by chromatography. 25 μl CHO cells transiently transfected with human CD40 were added to each well in a plate. The purified antibodies were titrated to final concentrations of 50, 5, 0.5, 0.05, and 0.005 μg/ml. The titrated antibodies were added to each well at 25 μl per well at 4° C. and incubated for 30 minutes.
hCD40 ligand-hFc was expressed by H293T cells. 50 μl of hCD40L-hFc was added to each well (1:500). The cells with hCD40L-hFc and the antibodies were incubated at 4° C. for 15 minutes.
After being washed with phosphate-buffered saline (PBS) twice, 50 μl of PE labeled anti-mouse IgG Fc antibody (anti-mIgG Fc-PE) at 1:500 dilution and FITC-labeled anti-human IgG Fc antibody (anti-hIgG Fc-FITC) at 1:100 dilution were added into each well, and incubated for 30 minutes at 4° C., followed by PBS wash. The signals for FITC and PE were determined by flow cytometry.

[5] = target: T2, mouse CD40 (mCD40) on transfected CHO …; assay: flow cytometry, CHO-mCD40 cells, anti-mIgG Fc-FITC
Description: as §1, §2

% cells in the Anti-mouse-IgG-Fc-FITC positive gate [1]: 82.6%
% cells in the Anti-mouse-IgG-Fc-FITC positive gate [2]: 0.674%
% cells in the Anti-mouse-IgG-Fc-FITC positive gate [3]: 82.4%
% cells lower left (ligand- / antibody-) at 0.005µg/mL [4]: 42.7%
% cells lower left (ligand- / antibody-) at 0.05µg/mL [4]: 9.95%
% cells lower left (ligand- / antibody-) at 0.5µg/mL [4]: 7.02%
% cells lower left (ligand- / antibody-) at 5µg/mL [4]: 12.9%
% cells lower left (ligand- / antibody-) at 50µg/mL [4]: 12.8%
% cells lower right (ligand- / antibody+) at 0.005µg/mL [4]: 1.99%
% cells lower right (ligand- / antibody+) at 0.05µg/mL [4]: 32.1%
% cells lower right (ligand- / antibody+) at 0.5µg/mL [4]: 47.7%
% cells lower right (ligand- / antibody+) at 5µg/mL [4]: 78.8%
% cells lower right (ligand- / antibody+) at 50µg/mL [4]: 78.1%
% cells upper left (ligand+ / antibody-) at 0.005µg/mL [4]: 4.03%
% cells upper left (ligand+ / antibody-) at 0.05µg/mL [4]: 0%
% cells upper left (ligand+ / antibody-) at 0.5µg/mL [4]: 0.056%
% cells upper left (ligand+ / antibody-) at 5µg/mL [4]: 0%
% cells upper left (ligand+ / antibody-) at 50µg/mL [4]: 0%
% cells upper right (ligand+ / antibody+) at 0.005µg/mL [4]: 51.3%
% cells upper right (ligand+ / antibody+) at 0.05µg/mL [4]: 57.9%
% cells upper right (ligand+ / antibody+) at 0.5µg/mL [4]: 45.2%
% cells upper right (ligand+ / antibody+) at 5µg/mL [4]: 8.35%
% cells upper right (ligand+ / antibody+) at 50µg/mL [4]: 9.09%
binding result [5]: no binding
B1: mouse anti-hCD40 antibody 03-7F10 (antibody, V domains shown)
VH: EVKLVESGGGLVQPGGSLKLSCATSGFTFSDYYMYWVRQTPEKRLEWVAYISYGGDSTFYPDTVRGRFTISRDNAKNALYLQMSRLKSEDTAVYYCARPAPSAHSYYLDYWGQGTTLTVSS
VL: DIQMTQTTSSLSASLGDRVTISCRASQDISNYLNWYQQKPDGTVKLLIYYTSRLHSGLPSRFSGSGSGTDYSLTISNLEQEDIATYYCQQGKTLPFTFASGTKLEIK
notes: Mouse antibody purified from ascites
